The text below walks through data of IntAct's records for PubMed 17012248.

The labels stand for the following.
B1: Sialic acid-binding Ig-like lectin 14 (Homo sapiens), Q08ET2 (parent)
chain: MLPLLLLPLLWGGSLQEKPVYELQVQKSVTVQEGLCVLVPCSFSYPWRSWYSSPPLYVYWFRDGEIPYYAEVVATNNPDRRVKPETQGRFRLLGDVQKKNCSLSIGDARMEDTGSYFFRVERGRDVKYSYQQNKLNLEVTALIEKPDIHFLEPLESGRPTRLSCSLPGSCEAGPPLTFSWTGNALSPLDPETTRSSELTLTPRPEDHGTNLTCQVKRQGAQVTTERTVQLNVSYAPQNLAISIFFRNGTGTALRILSNGMSVPIQEGQSLFLACTVDSNPPASLSWFREGKALNPSQTSMSGTLELPNIGAREGGEFTCRVQHPLGSQHLSFILSVQRSSSSCICVTEKQQGSWPLVLTLIRGALMGAGFLLTYGLTWIYYTRCGGPQQSRAERPG

In this test the parent is B1. The following applies: with tyobp_human TYROBP.
Turning to MLPLLLLPLLWGGSLQEKPVYELQVQKSVTVQEGLCVLVPCSFSYPWRSWYSSPPLYVYWFRDGEIPYYAEVVATNNPDRRVKPETQGRFRLLGDVQKKNCSLSIGDARMEDTGSYFFRVERGRDVKYSYQQNKLNLEVTALIEKPDIHFLEPLESGRPTRLSCSLPGSCEAGPPLTFSWTGNALSPLDPETTRSSELTLTPRPEDHGTNLTCQVKRQGAQVTTERTVQLNVSYAPQNLAISIFFRNGTGTALRILSNGMSVPIQEGQSLFLACTVDSNPPASLSWFREGKALNPSQTSMSGTLELPNIGAREGGEFTCRVQHPLGSQHLSFILSVQRSSSSCICVTEKQQGSWPLVLTLIAGALMGAGFLLTYGLTWIYYTRCGGPQQSRAERPG [R362A], the “effect of a mutation on the interaction” value was “decreasing interaction”.
